Source: paper PMC12177098, “A human-like glutaminase-free asparaginase is highly efficacious in ASNS^low leukemia and solid cancer mouse xenograft models” (Cancer letters, 2024)
Residue numbers refer to the chain shown, from its start. Numbers in names are those of the source.

Legend:
EBD-200 = target: T1, EBD-200 (Cavia porcellus, UniProt H0W0T5); details: read-out: EBD-200 ^a; 50 mM Tris-HCl pH 7.5, 200 mM NaCl, 37 °C
T1 construct: gene ASPG
Source text: continuous coupled NADH spectrophotometric assay (malic dehydrogenase / glutamic-oxalacetic transaminase) on EBD-200

E. coli L-ASNase (EcA) = target: T2, E. coli L-ASNase (EcA) (Escherichia coli, UniProt P00805); assay: continuous coupled NADH assay (L-glutamic dehydrogenase); NMR; format: biochemical; details: 5 mM GLN, 10 nM enzyme (spectrophotometric); 0.1 and 2 μM enzyme (NMR)
T2 construct: gene ansB; made in cytosol of E. coli C41(DE3) from His6-SUMO-pET14b, His-SUMO tag cut with SUMO protease, gel filtration; family forms tetramers
T2 sequence (P00805 23-348): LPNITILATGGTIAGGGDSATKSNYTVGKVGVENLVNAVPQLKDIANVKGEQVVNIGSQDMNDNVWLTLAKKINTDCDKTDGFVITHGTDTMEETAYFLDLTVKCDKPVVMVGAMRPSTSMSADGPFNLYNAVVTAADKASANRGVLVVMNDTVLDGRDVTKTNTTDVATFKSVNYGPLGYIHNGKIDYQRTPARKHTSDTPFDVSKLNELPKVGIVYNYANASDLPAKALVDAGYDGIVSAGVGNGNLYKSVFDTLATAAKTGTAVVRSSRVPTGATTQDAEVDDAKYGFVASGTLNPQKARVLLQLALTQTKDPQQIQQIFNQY

[1] = substrate: NC(=O)C[C@H](N)C(=O)O; assay: continuous coupled NADH spectrophotometric assay (malic dehydrogenase / glutamic-oxalacetic transaminase); format: biochemical, Escherichia coli; details: 50 mM Tris-HCl pH 7.5, 200 mM NaCl, 37 °C
purified protein = substrate: NC(=O)C[C@H](N)C(=O)O; assay: purified protein; details: 50 mM Tris-HCl pH 7.5, 200 mM NaCl, 37 °C, in-house preparation, 0.6 % WT contamination, printed as >1.4 mM

T1 sequence (H0W0T5 1-359): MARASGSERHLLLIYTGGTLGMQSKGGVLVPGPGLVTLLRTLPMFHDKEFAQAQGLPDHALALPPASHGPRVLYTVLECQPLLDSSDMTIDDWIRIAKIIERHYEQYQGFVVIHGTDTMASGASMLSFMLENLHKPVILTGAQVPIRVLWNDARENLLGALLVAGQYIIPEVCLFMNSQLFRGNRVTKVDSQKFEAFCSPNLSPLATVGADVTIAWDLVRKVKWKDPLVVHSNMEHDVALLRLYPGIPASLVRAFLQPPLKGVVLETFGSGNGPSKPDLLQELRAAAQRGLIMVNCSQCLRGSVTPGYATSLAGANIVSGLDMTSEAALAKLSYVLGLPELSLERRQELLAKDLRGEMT

`NC(=O)C[C@H](N)C(=O)O` [L-ASN] gave a Km (EBD-200) of 41.3 ± 0.7 µM.

`NC(=O)CC[C@H](N)C(=O)O` [L-GLN] was tested, and the “continuous coupled NADH assay (L-glutamic dehydrogenase); NMR” value (E. coli L-ASNase (EcA)) was “GLNase activity is easily observed by EcA but not by EBD-200”.

B1: E. coli L-ASNase (EcA) (Escherichia coli K-12) (protein)
chain: T2 sequence (P00805 23-348)
notes: made in cytosol of E. coli C41(DE3) from His6-SUMO-pET14b, His-SUMO tag cut with SUMO protease, gel filtration; family forms tetramers
For B1, the Km [1] was 14 µM and the kcat [1] was 44 s⁻¹.

B2: E. coli L-ASNase (EcA) (Escherichia coli K-12; Q81L) (protein)
chain: T2 sequence (P00805 23-348) with Q59L
B2 showed a Km (purified protein) of 1.4 mM and a kcat (purified protein) of 1.3 s⁻¹.
